Results from patent US6818617.

Legend:
[1] = molecular target: integrin α4β1 on CHO cells transfected with human α4 (human) (UniProt P13612); assay: inhibition of cell adhesion: A2 (CHOα4+) cells to immobilized VCAM-1
[2] = molecular target: integrin α4β1 on CHO cells transfected with human α4 (human) (UniProt P13612); assay: inhibition of cell adhesion: α4B2 (CHO α4+/α5-) cells to immobilized VCAM-1
[3] = molecular target: integrin α4β1 on Jurkat cells, P13612
[4] = molecular target: integrin α4β1 on Jurkat cells, P13612; assay: inhibition of cell adhesion: Jurkat cells to immobilized VCAM-1

| Binder | IC50 [1] [µM] | IC50 [2] [µM] | fold more active than MLDG [3] [fold] | IC50 [4] [µM] |
| --- | --- | --- | --- | --- |
| EC-3 protein, heterodimeric disintegrin from Echis carinatus suchoreki venom (protein) chain 1: NSVHPCCDPVKCEPREGEHCISGPCCRNCYFLRAGTVCKRAVGDDVDDYCSGITPDCPRNRYKGKED chain 2: NSVHPCCDPVKCEPREGEHCISGPCCRNCKFLNAGTICKRAMLDGLNDYCTGISTDCPRNRYKGKED | 0.03 | 0.03 | – | – |
| ECESGPCCRNCKFLKEGTICKRARGDDMDDYCNGKTCDCPRNPHKGPAT [Echistatin] | > 10 | > 10 | – | – |
| CKRAMLDGLNDYC (modifications not checked) [cyclic peptide …] | – | – | 5 | 1000 |
